The results in this text go back to patent US10174336B2, “Herbicide-tolerant plants” (BASF Agrochemical Products B.V., priority 2010, dated 2019).

The subject of one data set is OsICYP81A6. The experiment in a line: Yeast expression system, saflufenacil metabolism (LC/MS/MS). Type of data set: in vitro ADME, rice. The source says:
Rice cytochrome P450 81A6 was cloned into pESC-His yeast expression vector (Stratagene) using BamHI and SalI. Constructs were transformed into YPH500 yeast strain (Stratagene) using a Yeast Maker Transformation System from Clontech. Positive clones were selected on SD-agar plates (0.7% yeast nitrogen base without amino acids, 2% glucose, 0.13% amino acid drop-out without histidine; plates solidified with 2% agar). Bioconversion of substrates was directly assayed in yeast cells expressing the respective cytochrome P450 gene. Cells were induced in SG-His medium (same composition as SD but with galactose instead of glucose) for 18-24 h (Pompon et al., Methods in Enzymology 272:51-64 (1996); Urban et al., Eur. J. Biochem. 222:[…] (1994)). Afterwards, the BAS800H substrate was added and samples were incubated for an additional 24 h. Samples were analyzed by LC/MS/MS.

The test system of a further data set is Sb01g007420.1. Described as above. Format: in vitro ADME, sorghum. As to conditions: yeast cells expressing Sb01g007420.1, 24 h incubation.
The next data set relates to transgenic maize plants. The experiment in a line: Maize whole plant saflufenacil spray test (T0 and T1). Format: in vivo. Conditions: 240 g ai/ha saflufenacil + 1% MSO at 2-4 leaf stage; rated 7 and 14 days after application. The protocol: Immature Embryo Transformation: Immature embryos were transformed according to the procedure outlined in WO2006/136596 to Peng et al. The exception was that a proportion of the embryos—25 in most cases—were placed on media containing saflufenacil and kept in the light for direct selection. The remaining embryos in each experiment were selected on Pursuit as described. Plants were tested utilizing Taqman analysis with the target being the nos terminator which is present in all constructs. Healthy looking plants were sent to the greenhouse for hardening out and subsequent spray testing. As with the BMS cells, RCB958 was utilized as a control both for transformation, saflufenacil selection, and for spray testing.
A total of 82 transgenic maize plants (2 constructs of interest and 1 control construct) were delivered to the greenhouse in tissue culture. The plants were individually transplanted into MetroMix 360 soil in 4″ pots. […]
Sixteen vectors harboring different P450 genes were tested for the ability to increase tolerance to saflufenacil in T0 maize plants. […] Injury rating was evaluated 7 and 14 days after application. FIG. 5 indicates the number of plants from each segregating event that were evaluated and scored for herbicidal injury.

The test system of the next data set is T0 soybean cuttings. The experiment in a line: Soybean T0 cuttings saflufenacil spray test. Format: in vivo, Soybean cv Williams 82. Conditions: 0, 25, or 50 g ai/ha saflufenacil + 1% MSO; evaluated 7 days after treatment. The method, then: Soybean cv Williams 82 was transformed as previously described by Siminszky et al., Phytochem Rev. 5:445-458 (2006). After regeneration, transformants were transplanted to soil in small pots, placed in growth chambers (16 hr day/8 hr night; 25° C. day/23° C. night; 65% relative humidity; 130-150 μE m^−2 s^−1) and subsequently tested for the presence of the T-DNA via Taqman analysis. After a few weeks, healthy, transgenic positive, single copy events were transplanted to larger pots and allowed to grow in the growth chamber. An optimal shoot for cutting was about 3-4″ tall, with at least two nodes present. Each cutting was taken from the original transformant (mother plant) and dipped into rooting hormone powder (indole-3-butyric acid, IBA). The cutting was then placed in oasis wedges inside a bio-dome. The mother plant was taken to maturity in the greenhouse and harvested for seed. Wild type cuttings were also taken simultaneously to serve as negative controls. The cuttings were kept in the bio-dome for 5-7 days and then transplanted to 3″ pots and then acclimated in the growth chamber for two more days. Subsequently, the cuttings were transferred to the greenhouse, acclimated for approximately 4 days, and then subjected to spray tests containing 0, 25, and 50 g ai/ha saflufenacil plus 1% MSO. Herbicide injury evaluations were taken at 7 days after treatment.

The test system of data set [1] is maize, rice, and soybean transgenic systems. The experiment in a line: Saflufenacil tolerance in transgenic plant systems (FIG. 3 legend). Format: in vivo. Conditions: in one or more transgenic plant systems.

On to `CC(C)N(C)S(=O)(=O)NC(=O)c1cc(-n2c(=O)cc(C(F)(F)F)n(C)c2=O)c(F)cc1Cl` [BAS800H, 2-chloro-5-[3,6-dihydro-3-methyl-2,6-dioxo-4-(trifluoromethyl)-1(2H)-pyrimidinyl]-4-fluoro-N-[[methyl(1-methylethyl)amino]sulfonyl]benzamide], for which the “initial content of BAS800H converted into several metabolites” value in the data set with OsICYP81A6 (after 24 h incubation in P450-expressing yeast, enzyme not specified (OsICYP81A6 and Sb01g007420.1 named)) is recorded as 10%. In addition, the “degradation of BAS800H” value with OsICYP81A6 (yeast cells expressing OsICYP81A6, 24 h incubation) was “catalyzed degradation”; in the data set on Sb01g007420.1, “catalyzed degradation”.

B1: OsjCYP81A6: rice cytochrome P450 CYP81A6 gene/polypeptide, amino acid sequence SEQ ID NO:1 (protein, listed as Oryza sativa)
chain: MAFLGWAVDIARDSGASSSVVLTCDGYGSALYFSPWDSVPLPATASPDDGFLLPRFPDVCVQRSQFTNHLAPANGTGGGGSRTGVKEEASEVLSWPPTSKQSVRRLEVAEHWYRLYKTDNQRLSPDSQQVSVLAESHCDLASGNWKEISIHHKKMPSSTTTKTTTPSRDAWIVSARSDPFHLLLEAQAPLGIKADALSQIAAVHQSHRNTSHIRELSLAMDNAYIIAILSVAILFLLHYYLLGRGNGGAARLPPGPPAVPILGHLHLVKKPMHATMSRLAERYGPVFSLRLGSRRAVVVSSPGCARECFTEHDVTFANRPRFESQLLVSFNGAALATASYGAHWRNLRRIVAVQLLSAHRVGLMSGLIAGEVRAMVRRMYRAAAASPAGAARIQLKRRLFEVSLSVLMETIAHTKATRPETDPDTDMSVEAQEFKQVVDEIIPHIGAANLWDYLPALRWFDVFGVRRKILAAVSRRDAFLRRLIDAERRRLDDGDEGEKKSMIAVLLTLQKTEPEVYTDNMITALTANLFGAGTETTSTTSEWAMSLLLNHPDTLKKAQAEIDASVGNSRLITADDVTRLGYLQCIVRETLRLYPAAPMLLPHESSADCKVGGYNIPRGSMLLINAYAIHRDPAVWEEPEKFMPERFEDGGCDGNLLMPFGMGRRRCPGETLALRTVGLVLGTLIQCFDWERVDGVEVDMTEGGGLTIPKVVPLEAMCRPRDAMGGVLRELV
As for B1, the “tolerance of segregating T1 maize events (reduced injury scores vs J553 wild type)” value in the data set on transgenic maize plants is “increased tolerance”. For the same molecule, the “level of tolerance to saflufenacil in T0 soybean cuttings” value in the data set on T0 soybean cuttings is “greatest level of tolerance”.

B2: OsICYP81 A: CYP450 gene/polypeptide OsICYP81A6, amino acid sequence SEQ ID NO:29 (protein, listed as Oryza sativa)
chain: MDNAYIIAILSVAILFLLHYYLLGRGNGGAARLPPGPPAVPILGHLHLVKKPMHATMSRLAERYGPVFSLRLGSRRAVVVSSPGCARECFTEHDVTFANRPRFESQLLVSFNGAALATASYGAHWRNLRRIVAVQLLSAHRVGLMSGLIAGEVRAMVRRMYRAAAASPAGAARIQLKRRLFEVSLSVLMETIAHTKATRPETDPDTDMSVEAQEFKQVVDEIIPHIGAANLWDYLPALRWFDVFGVRRKILAAVSRRDAFLRRLIDAERRRLDDGDEGEKKSMIAVLLTLQKTEPEVYTDNMITALTANLFGAGTETTSTTSEWAMSLLLNHPDTLKKAQAEIDASVGNSRLITADDVTRLGYLQCIVRETLRLYPAAPMLLPHESSADCKVGGYNIPRGSMLLINAYAIHRDPAVWEEPEKFMPERFEDGGCDGNLLMPFGMGRRRCPGETLALRTVGLVLGTLIQCFDWERVDGVEVDMTEGGGLTIPKVVPLEAMCRPRDAMGGVLRELV
As to B2, in the data set on transgenic maize plants, the “tolerance of segregating T1 maize events (reduced injury scores vs J553 wild type)” value is recorded as “increased tolerance”.

B3: ZmNSF1: corn NSF1 cytochrome P450 gene/polypeptide, amino acid sequence SEQ ID NO:3 (protein)
chain: MDKAYIAALSAAALFLLHYLLGRRAGGEGKAKAKGSRRRLPPSPPAIPFLGHLHLVKAPFHGALARLAARHGPVFSMRLGTRRAVVVSSPDCARECFTEHDVNFANRPLFPSMRLASFDGAMLSVSSYGPYWRNLRRVAAVQLLSAHRVGCMAPAIEAQVRAMVRRMDRAAAAGGGGVARVQLKRRLFELSLSVLMETIAHTKTSRAEADADSDMSTEAHEFKQIVDELVPYIGTANRWDYLPVLRWFDVFGVRNKILDAVGRRDAFLGRLIDGERRRLDAGDESESKSMIAVLLTLQKSEPEVYTDTVITALCANLFGAGTETTSTTTEWAMSLLLNHREALKKAQAEIDAAVGTSRLVTADDVPHLTYLQCIVDETLRLHPAAPLLLPHESAADCTVGGYDVPRGTMLLVNVHAVHRDPAVWEDPDRFVPERFEGAGGKAEGRLLMPFGMGRRKCPGETLALRTVGLVLATLLQCFDWDTVDGAQVDMKASGGLTMPRAVPLEAMCRPRTAMRGVLKRL
modifications: Zea mays
For the molecule B3, in the data set with T0 soybean cuttings, the “level of tolerance to saflufenacil in T0 soybean cuttings” value is reported as “greatest level of tolerance”. Further, in data set [1], the “conferred tolerance to saflufenacil” value is reported as “conferred tolerance”.

B4: OsCYP72A15: rice cytochrome P450 CYP72A15 gene/polypeptide, amino acid sequence SEQ ID NO:7 (protein, listed as Oryza sativa)
chain: MLMMLGAASQWILAAAAAAAVAALLWLAVSTLEWAWWTPRRLERALRAQGIRGNRYRLFTGDVPENVRLNREARKKPLPLGCHDIIPRVLPMFSKAVEEHGKPSFTWFGPTPRVMISDPESIREVMSNKFGHYGKPKPTRLGKLLASGVVSYEGEKWAKHRRILNPAFHHEKIKRMLPVFSNCCTEMVTRWENSMSIEGMSEVDVWPEFQNLTGDVISKTAFGSSYEEGRRIFQLQAESAERIIQAFRTIFIPGYWFLPTKNNRRLREIEREVSKLLRGIIGKRERAIKNGETSNGDLLGLLVESNMRESNGKAELGMTTDEIIEECKLFYFAGMETTSVLLTWTLIVLSMHPEWQERAREEVLHHFGRTTPDYDSLSRLKIVTMILYEVLRLYPPVVFLTRRTYKEMELGGIKYPAEVTLMLPILFIHHDPDIWGKDAGEFNPGRFADGISNATKYQTSFFPFGWGPRICIGQNFALLEAKMAICTILQRFSFELSPSYIHAPFTVITLHPQHGAQIKLKKI
Take B4: in data set [1], the “conferred tolerance to saflufenacil” value is “conferred tolerance”.
